Measured values taken from EP1908827A2.

Tests used:
[1] = target: PP1c (type-1 protein phosphatase catalytic subunit, PP1c alpha); assay: PP1c pull-down from extracts of cardiomyocytes co-infected with Ad-I-1 and AdPKCα wt, I-1 western blot quantified
[2] = target: PP1c (type-1 protein phosphatase catalytic subunit, PP1c alpha); assay: PP1c pull-down from extracts of cardiomyocytes co-infected with Ad-I-1 and AdPKCα dn, I-1 western blot quantified

**Q.** “Inhibitor-1 (I-1), expressed from adenovirus in neonatal rat cardiomyocyte cultures” was tested. Which change in I-1 co-precipitated with PP1c (wildtype PKCα co-expressed, against I-1 + β-gal) [1] did it give?
**A.** 50 % reduction

**Q.** And the change in I-1 co-precipitated with PP1c (dominant negative PKCα co-expressed, against I-1 + β-gal) [2]?
**A.** > 70 % increase
